# B1: KGC-HDAC5c (C-terminal portion of Kusabira Green protein fused with HDAC5c), wild type [human] / KGN-SRD3c (N-terminal portion of Kusabira Green protein fused with SRD3c) [human] (parent complex)
# chain 1: LFTTGVVYDTFMLKHQCMCGNTHVHPEHAGRIQSIWSRLQETGLLSKCERIRGRKATLDEIQTVHSEYHTLLYGTSPLNRQKLDSKKLLGPISQKMYAVLPCGGIGVDSDTVWNEMHSSSAVRMAVGCLLELAFKVAAGELKNGFAIIRPPGHHAEESTAMGFCFFNSVAITAKLLQQKLNVGKVLIVDWDIHHGNGTQQAFYNDPSVLYISLHRYDNGNFFPGSGAPEEVGGGPGVGYNVNVAWTGGVDPPIGDVEYLTAFRTVVMPIAHEFSPDVVLVSAGFDAVEGHLSPLGGYSVTARCFGHLTRQLMTLAGGRVVLALEGGHDLTAICDASEACVSALLSVELQPLDEAVLQQKPNINAVATLEKVIEIQSKHWSCVQKFAAGLGRSLREAQAGETEEAETVS
# chain 2: EGGMSVTQCSKEDGRSSSGPPHETAAPKRTYDMMEGRVGRAISSASIEGLMGRAIPPERHSPHHLKEQHHIRGSITQGIPRSYVEAQEDYLRREAKLLKREGTPPPPPPSRDLTEAYKTQALGPLKLKPAHEGLVATVKEAGRSIHEIPREELRHTPELPLAPRPLKEGSITQGTPLKYDTGASTTGSKKHDVRSLIGSPGRTFPPVHPLDVMADARALERACY
# Variants of: B1
# Assay: BiFC assay (fluorescence spectrophotometer); HEK293 cells; KGN-SRD3c (1 μg) and KGC-HDAC5c mutant (1 μg); 48 hours of transfection; whole cell lysates; parent: 9.3; read off a plot
row,Variant,response
1,chain 1 F222L,~3.9 RFU
2,chain 1 G295C,~5 RFU
3,chain 1 D110G,~5.1 RFU
4,chain 1 G127E,~3.7 RFU
5,chain 1 G219W,~3.9 RFU
6,chain 1 F163S,~5.8 RFU
7,chain 1 G152E,~4.1 RFU
8,chain 1 G325V,~4.1 RFU

# Next, values leading:
row,response,Variant
1,~4 RFU,chain 1 G326C
2,~4.9 RFU,chain 1 H154R
3,~5.9 RFU,chain 1 P151S
4,~3.9 RFU,chain 1 S118P
5,~3.8 RFU,chain 1 P150L
